According to patent US20250152729A1 (CANCER RESEARCH TECHNOLOGY, published 2025):
Where two headings read alike, the source gives them in different places.

How the values were obtained:
[1] = target: T1, human SEMA4A expressed on cells (UniProt ID Q9H3S1, isoform 1) (human, UniProt Q9H3S1 33-761); experiment: cell-based or functional assay
T1 sequence: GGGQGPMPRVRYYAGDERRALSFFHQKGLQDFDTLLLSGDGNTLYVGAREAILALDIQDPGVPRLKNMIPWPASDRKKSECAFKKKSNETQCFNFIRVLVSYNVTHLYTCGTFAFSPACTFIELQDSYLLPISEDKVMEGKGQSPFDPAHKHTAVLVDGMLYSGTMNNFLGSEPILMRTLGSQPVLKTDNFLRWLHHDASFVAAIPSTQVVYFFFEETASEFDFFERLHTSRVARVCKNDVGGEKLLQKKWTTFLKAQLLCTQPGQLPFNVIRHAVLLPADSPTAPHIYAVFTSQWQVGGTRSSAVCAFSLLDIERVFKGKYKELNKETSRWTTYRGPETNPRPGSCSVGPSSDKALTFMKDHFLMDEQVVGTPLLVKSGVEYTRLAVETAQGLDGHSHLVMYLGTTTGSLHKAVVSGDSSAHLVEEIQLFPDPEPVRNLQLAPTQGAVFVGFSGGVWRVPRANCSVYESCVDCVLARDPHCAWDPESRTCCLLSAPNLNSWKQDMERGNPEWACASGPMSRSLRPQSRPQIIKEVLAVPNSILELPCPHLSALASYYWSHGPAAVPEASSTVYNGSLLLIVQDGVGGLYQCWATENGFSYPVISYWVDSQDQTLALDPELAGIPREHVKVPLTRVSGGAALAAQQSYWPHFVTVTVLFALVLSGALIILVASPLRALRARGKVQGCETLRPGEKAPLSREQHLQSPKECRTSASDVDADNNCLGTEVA

[2] = target: T1, human SEMA4A expressed on cells …; experiment: cell-based or functional assay; remark: listed apart in the source
[3] = target: T1, human SEMA4A expressed on cells …; experiment: flow cytometry on NCI-H929 cells endogenously expressing human SEMA4A, 10-point titration
Description: Binding of SEMA4A specific IgGs to membrane-bound SEMA4A was evaluated using flow cytometry in NCI-H929 cells that endogenously express human SEMA4A. Binding assays were performed by incubating the anti-SEMA4A antibodies with 200,000 cells for 3 hours at 4° C. followed by two washes with PBS, 1% (w/v) BSA (FACS buffer). A range of antibody concentrations were evaluated using a 10-point, 3-fold dilution series. Cells were then incubated with Alexa Fluor 647 conjugated AffiniPure Fab Fragment Goat Anti-Human IgG (H+L) (Jackson Immunoresearch Europe Limited, Ely, Cambridgeshire) diluted 1:100, at 4° C. for 1 hour, followed by two washes in FACS buffer. Cells were then stained with LIVE/DEAD™ Fixable Violet Dead Cell Stain (Life Technologies, L34955) for 30 minutes at 4° C., followed by two washes in FACS buffer. Cells were then fixed using BD Cell Fix (BD Biosciences, 340181). Fluorescence of live, single cells was measured using a Novocyte™ 3000 flow cytometer and Novoexpress software (Acea Biosciences, Inc, San Diego, CA). Data were analysed using FlowJo software (FlowJo, LLC, Ashland, OR). Mean fluorescence intensity values were plotted against antibody conjugate concentrations and KD values determined using Prism software (GraphPad Software Inc, La Jolla, CA).

[4] = target: T2, human SEMA4B expressed on expi293 cells (human, UniProt Q9NPR2 44-837); experiment: Mirrorball direct binding, dilution series on expi293 cells transiently transfected with human SEMA4B, anti-human Alexa Fluor 647
T2 construct: whole, on cells
T2 sequence (looked up): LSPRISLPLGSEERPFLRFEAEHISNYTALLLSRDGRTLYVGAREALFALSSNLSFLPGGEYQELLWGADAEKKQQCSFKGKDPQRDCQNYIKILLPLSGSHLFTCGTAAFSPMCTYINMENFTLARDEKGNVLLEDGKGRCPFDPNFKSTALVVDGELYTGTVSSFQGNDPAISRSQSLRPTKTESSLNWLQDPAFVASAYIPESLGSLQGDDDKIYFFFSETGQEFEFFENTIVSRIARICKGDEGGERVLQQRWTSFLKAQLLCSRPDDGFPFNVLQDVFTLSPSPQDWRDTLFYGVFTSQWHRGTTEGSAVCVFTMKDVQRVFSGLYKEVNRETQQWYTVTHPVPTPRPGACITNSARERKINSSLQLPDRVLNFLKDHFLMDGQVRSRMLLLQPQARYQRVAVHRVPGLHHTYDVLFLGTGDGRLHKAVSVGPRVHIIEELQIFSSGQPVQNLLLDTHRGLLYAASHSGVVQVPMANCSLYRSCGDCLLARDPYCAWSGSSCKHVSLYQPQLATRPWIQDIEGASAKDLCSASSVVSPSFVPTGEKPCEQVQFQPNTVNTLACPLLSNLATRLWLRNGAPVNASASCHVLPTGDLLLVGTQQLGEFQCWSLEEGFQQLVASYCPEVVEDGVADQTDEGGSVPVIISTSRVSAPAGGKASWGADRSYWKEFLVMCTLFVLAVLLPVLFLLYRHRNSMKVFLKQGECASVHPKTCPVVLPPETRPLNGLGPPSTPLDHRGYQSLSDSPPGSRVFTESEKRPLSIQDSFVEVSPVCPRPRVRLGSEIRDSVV
Description: To determine the specificity profile of each purified human Alya IgG1 conjugated to McMMAF, a dilution series was tested for binding to human SEMA4A, human SEMA4B and mock transfected cells (transient transfections set up in expi 293 cells.) The three assays employed methods described in section 2.3, using the appropriate cells and substituting the un-purified scFv periplasmic preparation with the human Alya IgG1 conjugated to McMMAF. Data was analysed as Count x median mean intensity (x FLU).

[5] = target: T1, human SEMA4A expressed on cells …; experiment: cell-based or functional assay; remark: listed apart in the source

Row | Binder | EC50 (nM), Fab-pHast internalisation into NCI-H929 [1] | Fold-Change at 6 hours (10 nM), Fab-pHast internalisation [1] | Average KARPAS 25 IC50 [pM], cell kill [2] | Average MM1.S IC50 [pM], cell kill [2] | Average NCI-H929 IC50 [pM], cell kill [2] | Kd [3] | binding result [4] | Average MM1.S IC50 [pM], cell kill [5] | Average NCI-H929 IC50 [pM], cell kill [5]
1 | 5Hg2-5Lg2 human Alya IgG1 conjugated to McMMAF (antibody, V domains shown, McMMAF on the engineered cysteines 239iCys and S442C (EU numbering) of the heavy constant region, Antibody-drug conjugate; human IgG1 Alya constant; also called 5Hg2/5Lg2-McMMAF) VH: QVQLVQSGAEVKKPGASVKVSCKASGYTFTDYWMHWVRQAPGQRLEWMGAIDTSDSYTSYNQKFKGRVTITRDTSASTAYMELSSLRSEDTAVYYCARDYGNFYYYAMDYWGQGTLVTVSS VL: QAVVTQEPSLTVSPGGTVTLTCRSSTGAVTTSNYANWFQQKPGQAPRTLIYGTNNRAPWTPARFSGSLLGGKAALTLLGAQPEDEAEYYCALWYSNHWVFGGGTKLTVL | 0.59 nM | 103 fold | 181 pM | 10.7 pM | 34.3 pM | 2.46 nM | no binding (tested: log (M) -8 (1e-8 M)) | – | –
2 | C0120914 human Alya IgG1 conjugated to McMMAF (antibody, V domains shown, McMMAF on the engineered cysteines 239iCys and S442C (EU numbering) of the heavy constant region, Antibody-drug conjugate; human IgG1 Alya constant; also called C0120914-McMMAF) VH: QVQLQESGPGLVKPSETLSLTCTVSGGSVSSGRYDWSWIRQPPGKGLEWIGHIYYTGITDYNPSLRSRVTISADKPKNQFSLKLNSVTAADTAVYYCARGPFFDPWGQGTMVTVSS VL: QSVLTQPPSVSVAPGQTASLTCGANNIGSKSVQWYQQKPGQAPVLVVYDGSDRPSGIPDRFSGSSSENTATLTISRVEAGDEADYYCQLWDSVTDRPVFGGGTKVTVL | 3.29 nM | 112 fold | – | – | – | 9.04 nM | no binding (tested: log (M) -8 (1e-8 M)) | 1.1 pM | 2.5 pM
3 | mouse 5E3 as human Alya IgG1 conjugated to McMMAF (antibody, V domains shown, McMMAF on the engineered cysteines 239iCys and S442C (EU numbering) of the heavy constant region, Antibody-drug conjugate; human IgG1 Alya constant, drug-to-antibody ratio of four; also called Mouse 5E3-McMMAF) VH: QVQLQQPGAELVMPGASVKMSCKASGYTFTDYWMHWVKQRPGQGLEWIGAIDTSDSYTSYNQKFKGKATLTVDESSSTAYMQLSSLTSEDSAVYYCARDYGNFYYYAMDYWGQGTSVTVSS VL: QAVVTQESALTTSPGETVTLTCRSSTGAVTTSNYANWVQEKPDHLFTGLIGGTNNRAPGVPARFSGSLIGDKAALTITGAQTEDEAIYFCALWYSNHWVFGGGTKLTVL | 0.25 nM | 160 fold | 126 pM | 5.95 pM | 7.53 pM | 3.18 nM | no binding (tested: log (M) -8 (1e-8 M)) | 5.8 pM | 5.1 pM
4 | C0120903 human Alya IgG1 conjugated to McMMAF (antibody, V domains shown, McMMAF on the engineered cysteines 239iCys and S442C (EU numbering) of the heavy constant region, Antibody-drug conjugate; human IgG1 Alya constant; also called C0120903-McMMAF) VH: EVQLVQSGAEVKKPGSSMKVSCKASGGTFNSYTINWVRQAPGQGLEWVGGFIPIFGTADYAQKFHGRVAITADESMSTAYMELSSLRSEDTAVYYCARAPLGSEPFDYWGQGTMVTVSS VL: SYVLTQPPSVSVAPGQTARITCGGNNIGSKSVHWYQQKPGQAPVLVVYDDSDRPSGIPERFSGSNSGNTATLTISRVEAGDEADYYCQVWDSSSDHLVFGGGTKLTVL | 0.98 nM | 118 fold | – | – | – | 9.88 nM | no binding (tested: log (M) -8 (1e-8 M)) | 8.8 pM | 7.1 pM
5 | C0120905 human Alya IgG1 conjugated to McMMAF (antibody, V domains shown, McMMAF on the engineered cysteines 239iCys and S442C (EU numbering) of the heavy constant region, Antibody-drug conjugate; human IgG1 Alya constant; also called C0120905-McMMAF) VH: not shown VL: NFMLTQPHSVSESPGKTVTISCTGSGGNIVDNFVQWHQQRPGSAPRTVIYEDDQRPSGVPDRFSASVDSSSNSGTLSISGLKTEDEADYYCQSYDGANRWVFGGGTKLTVL | 3.72 nM | 91 fold | – | – | – | 34.3 nM | no binding (tested: log (M) -8 (1e-8 M)) | 63.5 pM | 90.8 pM
